Each block holds one binder with its values, some of them ahead of it. No end group written: not given here.
Key:
[1] = biological target: T1, HLA-A*11:01 (recombinant MHC class I molecule) (human); assay: REVEAL MHC-peptide binding assay, stabilisation of ternary complex with recombinant MHC
T1 construct: Recombinant MHC molecule of the ProImmune REVEAL assay
Method: (§1) Specifically, assessment was of a series of overlapping 9-mer peptides derived from the sequence […] (set forth in SEQ ID NO: 7), which contains a portion of the CD28 transmembrane domain and 4-1BB costimulatory domain spanning the junction between the domains (bond joining the two amino acids noted in underline). In addition, a series of overlapping 9-mer peptides of each of a number of different variants of this portion also were assessed, each variant containing a mutation or mutations in this region as described in Example 2.
(§2) The various 9-mer overlapping peptides were synthesized and their purity tested by MALDI-TOF Mass Spectrometry.

[2] = biological target: T2, HLA-B*08:01 (recombinant MHC class I molecule) (human); assay: as above
T2 construct: Recombinant MHC molecule of the ProImmune REVEAL assay
Method: as §1, §2

HLA-A*03:01 = biological target: T3, HLA-A*03:01 (human); assay: REVEAL MHC-peptide binding assay, recombinant HLA
T3 construct: recombinant MHC class I molecule incubated with the synthetic peptide (REVEAL, ProImmune)
Method: as §1, §2

HLA-A*02:01 = biological target: T4, HLA-A*02:01 (human); assay: REVEAL MHC-peptide binding assay, recombinant HLA
T4 construct: recombinant MHC class I molecule incubated with the synthetic peptide (REVEAL, ProImmune)
Method: as §1, §2

[3] = biological target: T5, HLA-A*02:01 (recombinant MHC class I molecule) (human); assay: REVEAL MHC-peptide binding assay, recombinant MHC, score normalised to positive control = 100
T5 construct: Recombinant MHC used in the ProImmune REVEAL assay; also called HLA-A2:01
Method: as §1, §2

[4] = biological target: T6, HLA-A*03:01 (recombinant MHC class I molecule) (human); assay: as above
T6 construct: Recombinant MHC used in the ProImmune REVEAL assay
Method: as §1, §2

B2: AFIIFWVKR (peptide)
peptide: AFIIFWVKR
notes: synthetic 9-mer of the CD28-4-1BB junction; mutation: none
In Vitro Score (HLA-A*03:01): 5.7 % of positive control peptide
In Vitro Score (HLA-A*02:01): 0.5 % of positive control peptide

B3: AFIIFWVLR (peptide)
peptide: AFIIFWVLR
notes: synthetic 9-mer variant; the entry already carries the change
In Vitro Score (HLA-A*03:01): 0.3 % of positive control peptide
In Vitro Score (HLA-A*02:01): 5.7 % of positive control peptide

B4: AFIIFWVQR (peptide)
peptide: AFIIFWVQR
notes: as for B3
In Vitro Score (HLA-A*03:01): 0.2 % of positive control peptide
In Vitro Score (HLA-A*02:01): 0.4 % of positive control peptide

B5: Synthetic peptide WVKRGRKKA (L34A) (peptide)
peptide: WVKRGRKKA
notes: Synthetic 9-mer variant of the CD28 transmembrane / 4-1BB costimulatory junction region
In Vitro Score [3]: 4.5 % of positive control peptide
In Vitro Score [4]: 0.9 % of positive control peptide

B6: AFIIFWVRR synthetic peptide K28R (SEQ ID NO: 101) (peptide)
peptide: AFIIFWVRR
notes: Synthetic 9-mer from the CD28/4-1BB junction region
In Vitro Score [1]: 1.5 % of positive control peptide
In Vitro Score [2]: 0.3 % of positive control peptide

B7: Synthetic peptide WVQRGNKKS (K28Q/L34S as labelled) (peptide)
peptide: WVQRGNKKS
modifications: not fully specified
notes: Synthetic 9-mer junction variant
In Vitro Score [3]: 1.2 % of positive control peptide
In Vitro Score [4]: 0.7 % of positive control peptide

B8: Synthetic peptide WVQRGNKKA (K28Q/L34A as labelled) (peptide)
peptide: WVQRGNKKA
modifications: not fully specified
notes: as for B7
In Vitro Score [3]: 1.9 % of positive control peptide
In Vitro Score [4]: 1.2 % of positive control peptide

B9: Synthetic peptide AFIIFWVRR (K28R) (peptide)
peptide: AFIIFWVRR
notes: as for B7
In Vitro Score [3]: 1.4 % of positive control peptide

B10: WVKRGRKKL (peptide)
peptide: WVKRGRKKL
notes: as for B2
In Vitro Score (HLA-A*03:01): 13.1 % of positive control peptide
In Vitro Score (HLA-A*02:01): 1.4 % of positive control peptide

B18: WVQRGNKKS synthetic peptide K28Q/L34S (SEQ ID NO: 91) (peptide)
peptide: WVQRGNKKS
modifications: not fully specified
notes: as for B6
In Vitro Score [1]: 5 % of positive control peptide
In Vitro Score [2]: 0 % of positive control peptide

B20: VAFIIFWVA (peptide)
peptide: VAFIIFWVA
notes: as for B3
In Vitro Score (HLA-A*03:01): 0 % of positive control peptide
In Vitro Score (HLA-A*02:01): 28.5 % of positive control peptide

B21: VAFIIFWVL (peptide)
peptide: VAFIIFWVL
notes: as for B3
In Vitro Score (HLA-A*03:01): 0 % of positive control peptide
In Vitro Score (HLA-A*02:01): 0.2 % of positive control peptide

B22: VAFIIFWVH (peptide)
peptide: VAFIIFWVH
notes: as for B3
In Vitro Score (HLA-A*03:01): 0.3 % of positive control peptide
In Vitro Score (HLA-A*02:01): 3.1 % of positive control peptide

B24: FIIFWVKRG (peptide)
peptide: FIIFWVKRG
notes: as for B2
In Vitro Score (HLA-A*03:01): 1.4 % of positive control peptide
In Vitro Score (HLA-A*02:01): 10.1 % of positive control peptide

B25: FIIFWVLRG (peptide)
peptide: FIIFWVLRG
notes: as for B3
In Vitro Score (HLA-A*03:01): 0.1 % of positive control peptide
In Vitro Score (HLA-A*02:01): 7.2 % of positive control peptide

B26: FIIFWVQRG (peptide)
peptide: FIIFWVQRG
notes: as for B3
In Vitro Score (HLA-A*03:01): 0.4 % of positive control peptide
In Vitro Score (HLA-A*02:01): 16.8 % of positive control peptide

B27: FIIFWVSRG (peptide)
peptide: FIIFWVSRG
notes: as for B3
In Vitro Score (HLA-A*03:01): 0.1 % of positive control peptide
In Vitro Score (HLA-A*02:01): 0.2 % of positive control peptide

Next, values leading:

In Vitro Score [1]: 3.1 % of positive control peptide
In Vitro Score [2]: 3.1 % of positive control peptide
B1: WVKRGRKKA synthetic peptide L34A (SEQ ID NO: 90) (peptide)
peptide: WVKRGRKKA
notes: Synthetic 9-mer from the CD28 transmembrane / 4-1BB costimulatory junction region of a CAR

In Vitro Score (HLA-A*03:01): 0.9 % of positive control peptide
In Vitro Score (HLA-A*02:01): 3.9 % of positive control peptide
B11: WVKRGRKKS (peptide)
peptide: WVKRGRKKS
notes: as for B3

In Vitro Score (HLA-A*03:01): 0.7 % of positive control peptide
In Vitro Score (HLA-A*02:01): 2.4 % of positive control peptide
B12: WVLRGRKKL (peptide)
peptide: WVLRGRKKL
notes: as for B3

In Vitro Score (HLA-A*03:01): 1.2 % of positive control peptide
In Vitro Score (HLA-A*02:01): 4.4 % of positive control peptide
B13: WVQRGSKKL (peptide)
peptide: WVQRGSKKL
notes: synthetic 9-mer variant; the entry already carries the changes

In Vitro Score (HLA-A*03:01): 2 % of positive control peptide
In Vitro Score (HLA-A*02:01): 3 % of positive control peptide
B14: WVQRGAKKL (peptide)
peptide: WVQRGAKKL
notes: as for B13

In Vitro Score (HLA-A*03:01): 3.4 % of positive control peptide
In Vitro Score (HLA-A*02:01): 1.6 % of positive control peptide
B15: WVHRGRKKL (peptide)
peptide: WVHRGRKKL
notes: as for B3

In Vitro Score (HLA-A*03:01): 10 % of positive control peptide
In Vitro Score (HLA-A*02:01): 24.5 % of positive control peptide
B16: WVKRGLKKL (peptide)
peptide: WVKRGLKKL
notes: as for B3

In Vitro Score (HLA-A*03:01): 2.1 % of positive control peptide
In Vitro Score (HLA-A*02:01): 2.3 % of positive control peptide
B17: WVSRGRKKL (peptide)
peptide: WVSRGRKKL
notes: as for B3

In Vitro Score [1]: 0.8 % of positive control peptide
In Vitro Score [2]: 0.7 % of positive control peptide
B19: WVQRGNKKA synthetic peptide K28Q/L34A (SEQ ID NO: 92) (peptide)
peptide: WVQRGNKKA
modifications: not fully specified
notes: as for B6

In Vitro Score (HLA-A*03:01): 0.2 % of positive control peptide
In Vitro Score (HLA-A*02:01): 5.3 % of positive control peptide
B23: VAFIIFWVQ (peptide)
peptide: VAFIIFWVQ
notes: as for B3
